Assay results published in patent US20140086916A1 (Merck Sharp & Dohme, published 2014).
Where two headings read alike, the source gives them in different places.

B1: 1F11 wildtype (parent) humanized anti-PCSK9 monoclonal IgG1 antibody (antibody)
heavy: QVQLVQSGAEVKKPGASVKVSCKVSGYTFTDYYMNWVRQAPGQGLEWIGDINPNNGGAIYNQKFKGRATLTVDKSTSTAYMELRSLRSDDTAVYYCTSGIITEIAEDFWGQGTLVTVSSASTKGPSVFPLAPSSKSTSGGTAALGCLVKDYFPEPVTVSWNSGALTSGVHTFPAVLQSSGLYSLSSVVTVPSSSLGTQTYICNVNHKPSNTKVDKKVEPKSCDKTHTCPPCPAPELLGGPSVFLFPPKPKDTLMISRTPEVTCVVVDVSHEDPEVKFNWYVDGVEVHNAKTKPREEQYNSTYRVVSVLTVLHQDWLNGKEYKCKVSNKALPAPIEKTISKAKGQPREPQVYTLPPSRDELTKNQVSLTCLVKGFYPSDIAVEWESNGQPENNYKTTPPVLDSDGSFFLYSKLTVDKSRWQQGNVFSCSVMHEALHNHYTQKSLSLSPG
light: DIQMTQSPSSLSASVGDRVTITCKASQNVGTNVVWYQQKPGKAPKALIHSASYRYSGVPSRFSGSGSGTDFTLTISSLQPEDFATYYCQQYKTYPYTFGQGTKVEIKRTVAAPSVFIFPPSDEQLKSGTASVVCLLNNFYPREAKVQWKVDNALQSGNSQESVTEQDSKDSTYSLSSTLTLSKADYEKHKVYACEVTHQGLSSPVTKSFNRGEC
notes: Produced in glycoengineered Pichia pastoris GFI5.0 (strain YGLY21351); also called 1F11 IgG1 GS5.0; YGLY21351
B2: 1F11 IgG1 F243A/V264A double mutein anti-PCSK9 antibody (antibody)
heavy: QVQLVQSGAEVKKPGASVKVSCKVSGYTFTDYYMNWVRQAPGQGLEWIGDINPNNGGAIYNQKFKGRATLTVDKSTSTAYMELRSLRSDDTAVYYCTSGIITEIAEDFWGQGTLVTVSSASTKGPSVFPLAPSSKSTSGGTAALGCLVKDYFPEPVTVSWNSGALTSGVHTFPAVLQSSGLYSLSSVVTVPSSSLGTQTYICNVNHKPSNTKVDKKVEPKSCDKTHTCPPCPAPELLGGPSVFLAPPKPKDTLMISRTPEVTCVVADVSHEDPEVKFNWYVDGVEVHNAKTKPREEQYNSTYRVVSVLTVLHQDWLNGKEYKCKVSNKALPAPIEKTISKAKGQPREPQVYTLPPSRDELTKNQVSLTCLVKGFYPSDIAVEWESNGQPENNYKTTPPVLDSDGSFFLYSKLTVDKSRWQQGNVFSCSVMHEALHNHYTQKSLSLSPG
light: B1 light
notes: sialylated N-glycans; also called 1F11 DM; YGLY23258

What was measured:
FcγRIIA H = biological target: T1, FcγRIIA H (UniProt P12318 34-217, limits assumed); assay: FcγR affinity assay 'as described in Example 7', n = 3; printed as Affinity (nM) ± STDEV
T1 construct: also called FcgRIIA H
T1 sequence (looked up): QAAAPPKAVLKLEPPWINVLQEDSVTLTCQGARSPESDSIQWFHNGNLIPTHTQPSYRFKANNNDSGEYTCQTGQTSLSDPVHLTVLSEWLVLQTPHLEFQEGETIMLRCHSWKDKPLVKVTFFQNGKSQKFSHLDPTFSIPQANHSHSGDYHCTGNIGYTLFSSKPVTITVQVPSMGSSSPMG
Experimental: (§1) Fcγ receptor binding assays were carried out as described (Shields, et al. (2001) J. Biol. Chem. 276:6591-6604) with minor modifications. High protein binding 96-well plates (Corning Costar) were coated with 100 μL per well of Fcγ receptor solutions in PBS at the following concentrations: 1 μg/mL for both FcγRI (R&D Systems) and FcγRIIa (Pichia pastoris produced), 2 μg/mL for FcγRIIb (P. pastoris produced), 0.8 μg/mL for FcγRIIIa-F158, and 0.4 μg/mL for FcγRIIIa-V158 (both P. pastoris produced). All Pichia pastoris produced receptors were expressed and purified as described (Li, et al. (2006) Nature Biotechnology 24:210-215). Monomeric antibody samples added to the FcγRI plate were serially diluted in assay diluent (1×PBS, 1% BSA, and 0.05% Tween20) and 100 μL, per well was added to the plate. Antibody samples prepared for the remaining receptors require a one hour dimerization step with half molar ratio of goat anti-human IgG F(ab′)2 F(ab′)2 that is conjugated with alkaline phosphatase for detection. These dimerized F(ab′)2/antibody complexes were also serially diluted and 100 μL per well were added to the remaining receptor plates and all plates were incubated for one hour at room temperature. FcγRI bound sample antibody was detected using the same goat anti-human IgG F(ab′)2 alkaline phosphatase conjugated F(ab′)2. Sample antibody binding was quantified by measuring excitation at 340 nm and emission at 465 nm after 18 hour incubation with SuperPhos, 4-MUP Fluorescence AP Substrate Detection System (Virolabs).

[1] = biological target: T2, FcγRIIb (Pichia pastoris produced) (UniProt P31994 43-217, limits assumed); assay: as above
T2 construct: also called FcgRIIB; CD32B
T2 sequence (looked up): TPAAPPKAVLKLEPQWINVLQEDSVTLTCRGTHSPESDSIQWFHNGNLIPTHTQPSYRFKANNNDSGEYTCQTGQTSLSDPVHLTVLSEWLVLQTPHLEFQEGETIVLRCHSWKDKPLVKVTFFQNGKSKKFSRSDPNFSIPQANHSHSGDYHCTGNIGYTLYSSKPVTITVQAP
Experimental: as §1

[2] = biological target: T2, FcγRIIb (Pichia pastoris produced); assay: ELISA-type plate assay, FcγR coated, antibody dimerized with AP-conjugated goat anti-human IgG F(ab')2, RFU readout
Experimental: as §1

[3] = biological target: T3, FcγRIIIa-F158 (Pichia pastoris produced) (UniProt P08637 17-208, limits assumed); assay: as above
T3 construct: also called FcγRIIIA LF; FcgRIIIA LF
Experimental: as §1

[4] = biological target: T4, FcγRIIa (Pichia pastoris produced) (UniProt P12318 34-217, limits assumed); assay: as above
T4 construct: also called CD32A
T4 sequence (looked up): T1 sequence (looked up)
Experimental: as §1

[5] = biological target: T3, FcγRIIIa-F158 (Pichia pastoris produced); assay: as above; remark: listed apart in the source
Experimental: as §1

FcγRI (R&D Systems) [6] = biological target: T5, FcγRI (R&D Systems) (UniProt P12314 16-288); assay: ELISA-type plate assay, FcγRI coated, monomeric antibody, detected with AP-conjugated goat anti-human IgG F(ab')2, RFU readout
T5 construct: Bought reagent, coated on the plate at 1 µg/mL; also called Fc gamma receptor I; CD64
Experimental: as §1, with “These dimerized F(ab′)2/antibody complexes were also serially diluted and 100 μL per well were added to the remaining receptor plates and all plates were incubated for one hour at room temperature.” left out

FcγRI (R&D Systems) [7] = biological target: T5, FcγRI (R&D Systems); assay: summary of the FcγR ELISAs
Experimental: as §1

[8] = biological target: T3, FcγRIIIa-F158 (Pichia pastoris produced); assay: summary of the FcγR ELISAs
Experimental: as §1

[9] = biological target: T6, FcγRIIIa-V158 (Pichia pastoris produced) (UniProt P08637 17-208, limits assumed); assay: summary of the FcγR ELISAs
T6 construct: also called FcγRIIIA LV; FcgRIIIA LV
Experimental: as §1

[10] = biological target: T3, FcγRIIIa-F158 (Pichia pastoris produced); assay: fold change of the Table 12 affinities
Experimental: as §1

[11] = biological target: T6, FcγRIIIa-V158 (Pichia pastoris produced); assay: fold change of the Table 12 affinities
Experimental: as §1

[12] = biological target: T3, FcγRIIIa-F158 (Pichia pastoris produced); assay: ELISA on plate-coated receptor; antibody dimerized with anti-human IgG F(ab')2-AP; ELISA IC50, YGLY23258 (dimer), Table 3 experiment
Experimental: as §1, with “These dimerized F(ab′)2/antibody complexes were also serially diluted and 100 μL per well were added to the remaining receptor plates and all plates were incubated for one hour at room temperature.” left out

[13] = biological target: T6, FcγRIIIa-V158 (Pichia pastoris produced); assay: ELISA on plate-coated receptor; antibody dimerized with anti-human IgG F(ab')2-AP; ELISA IC50, YGLY23258 (dimer), Table 5 experiment
Experimental: as §1, with “These dimerized F(ab′)2/antibody complexes were also serially diluted and 100 μL per well were added to the remaining receptor plates and all plates were incubated for one hour at room temperature.” left out

[14] = biological target: T3, FcγRIIIa-F158 (Pichia pastoris produced); assay: ELISA on plate-coated receptor; antibody dimerized with anti-human IgG F(ab')2-AP; ELISA IC50, YGLY23258 (dimer), Table 7 experiment
Experimental: as §1, with “These dimerized F(ab′)2/antibody complexes were also serially diluted and 100 μL per well were added to the remaining receptor plates and all plates were incubated for one hour at room temperature.” left out

[15] = biological target: T6, FcγRIIIa-V158 (Pichia pastoris produced); assay: as above
Experimental: as §1, with “These dimerized F(ab′)2/antibody complexes were also serially diluted and 100 μL per well were added to the remaining receptor plates and all plates were incubated for one hour at room temperature.” left out

T3 sequence (P08637 17-208 limits assumed): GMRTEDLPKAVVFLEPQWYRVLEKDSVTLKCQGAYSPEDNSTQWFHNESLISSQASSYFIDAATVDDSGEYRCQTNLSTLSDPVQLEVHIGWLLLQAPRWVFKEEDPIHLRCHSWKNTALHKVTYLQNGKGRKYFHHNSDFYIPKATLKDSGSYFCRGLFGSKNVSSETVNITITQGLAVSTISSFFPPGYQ
T6 sequence (P08637 17-208 F176V limits assumed): as the sequence (P08637 17-208 limits assumed) above, with F160V counted along it
T5 sequence (P12314 16-288 limits assumed): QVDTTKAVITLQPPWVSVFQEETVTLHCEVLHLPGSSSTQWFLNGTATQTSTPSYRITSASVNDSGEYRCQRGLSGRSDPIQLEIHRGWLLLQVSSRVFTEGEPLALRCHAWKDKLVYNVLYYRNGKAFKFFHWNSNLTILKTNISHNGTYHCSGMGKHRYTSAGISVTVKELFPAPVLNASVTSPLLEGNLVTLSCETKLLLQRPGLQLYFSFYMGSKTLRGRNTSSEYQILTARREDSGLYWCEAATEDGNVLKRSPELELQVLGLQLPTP

| Kd (FcγRIIA H) | Kd [1] | EC50 (read off the curve) [2] | EC50 (read off the curve) [3] | EC50 (read off the curve) [4] | EC50 (read off the curve) [5] | EC50 (read off the curve) (FcγRI (R&D Systems) [6]) | decreased affinity fold vs wildtype parent antibody produced in GS 5.0 (FcγRI (R&D Systems) [7]) | decreased affinity fold vs wildtype parent antibody produced in GS 5.0 [8] | decreased affinity fold vs wildtype parent antibody produced in GS 5.0 [9] | fold change in affinity vs 1F11 IgG1 GS5.0 [10] | fold change in affinity vs 1F11 IgG1 GS5.0 [11] | IC50 [12] | IC50 [13] | IC50 [14] | IC50 [15] | Binder |
| --- | --- | --- | --- | --- | --- | --- | --- | --- | --- | --- | --- | --- | --- | --- | --- | --- |
| 892 nM | 545 nM | ~0.2 µg/mL | ~0.02 µg/mL | ~0.06 µg/mL | ~0.02 µg/mL | ~0.08 µg/mL | – | – | – | – | – | – | – | – | – | B1 |
| – | – | – | – | – | – | – | 4 fold | 8 to 60 fold | 2 to 6 fold | 12 fold | 647 fold | 0.6 µg/mL | 0.13 µg/mL | 1.31 µg/mL | 0.16 µg/mL | B2 |
